Experimental data as given in publication PMC11718114 (Nature Communications, 2025).

How the values were obtained:
Settings in all cases: both partners purified
[1] = target: T1, PI3Kα-RBD, PIK3CA-RBD(157-289) (human, UniProt P42336 157-289); assay: ITC; RAS GTPase (GMPPNP-bound, 300–500 μM) in the syringe, PI3K isoform or PI3Kα-RBD (30–50 μM) in the cell; 25 °C; 20 mM HEPES pH 7.4, 150 mM NaCl, 5 mM MgCl2, 1 mM TCEP; one set of sites; two replicates
T1 construct: also called PI3Ka-RBD; p110α-RBD; source: E. coli, purified (IMAC, TEV cleavage, second IMAC, SEC); not shown: His6, N-terminal, cleaved; MBP, N-terminal, cleaved

[2] = target: T2, PI3Kα: p110α(2-1068)W1057A/I1058A/F1059A + p85(322-600) (human, UniProt P42336 2-1068; P27986 322-600, W1057A | I1058A | F1059A); assay: as above
T2 construct: human PIK3CA (p110α), residues 2-1068; human PIK3R1 (p85α), residues 322-600 (nSH2-iSH2), untagged; also called PI3Ka; PI3Kα (p110α + p85); source: insect cells (baculovirus), co-expressed, purified (IMAC, TEV cleavage, second IMAC, anion exchange, SEC); not shown: His6, N-terminal, cleaved; MBP, N-terminal, cleaved

[3] = target: T3, PI3Kα-RBD (PIK3CA-RBD(157-289)) (human, UniProt P42336 157-289); assay: ITC; GMPPNP-bound RAS (300–500 μM) in the syringe, PI3K isoform or PI3Kα-RBD (30–50 μM) in the cell; 25 °C; 20 mM HEPES pH 7.4, 150 mM NaCl, 5 mM MgCl2, 1 mM TCEP; one set of sites; duplicates
T3 construct: also called p110α-RBD; p110α RBD; source: E. coli, purified (IMAC, TEV cleavage, second IMAC, SEC); not shown: His6, N-terminal, cleaved; MBP, N-terminal, cleaved

[4] = target: T4, PI3Kα: p110α(2-1068) W1057A/I1058A/F1059A + p85(322-600) (human, UniProt P42336 2-1068; P27986 322-600, W1057A | I1058A | F1059A); assay: as above
T4 construct: PIK3CA (p110α, catalytic subunit of PI3Kα), human, residues 2-1068; PIK3R1 (p85α regulatory subunit), human, residues 322-600 (nSH2-iSH2), untagged; also called PIK3CA(2-1068)W1057A/I1058A/F1059A + PIK3R1(322-600); p110α/p85; source: insect cells (baculovirus), co-expressed, purified (IMAC, TEV cleavage, second IMAC, anion exchange, SEC); not shown: His6, N-terminal, cleaved; MBP, N-terminal, …

B1: RRAS2(1-179)-Q36A, GMPPNP-bound (domain or fragment, human, UniProt P62070 1-179, looked up)
chain: MAAAGWRDGSGQEKYRLVVVGGGGVGKSALTIQFIASYFVTDYDPTIEDSYTKQCVIDDRAARLDILDTAGQEEFGAMREQYMRTGEGFLLVFSVTDRGSFEEIYKFQRQILRVKDRDEFPMILIGNKADLDHQRQVTQEEGQQLARQLKVTYMEASAKIRMNVDQAFHELVRVIRKFQ
notes: limits for the ITC are not separately stated; also called RRAS2-Q36A; source: E. coli, purified (IMAC, TEV cleavage, second IMAC, SEC); not shown: His6, N-terminal, cleaved; MBP, N-terminal, cleaved
Kd [1]: 4.9 µM
stoichiometry N [1]: 1.12 sites
Kd [2]: 2.1 µM
stoichiometry N [2]: 0.95 sites

B2: RRAS2(1-179)-Q36A (domain or fragment, human, UniProt P62070 1-179, looked up)
chain: MAAAGWRDGSGQEKYRLVVVGGGGVGKSALTIQFIASYFVTDYDPTIEDSYTKQCVIDDRAARLDILDTAGQEEFGAMREQYMRTGEGFLLVFSVTDRGSFEEIYKFQRQILRVKDRDEFPMILIGNKADLDHQRQVTQEEGQQLARQLKVTYMEASAKIRMNVDQAFHELVRVIRKFQ
notes: RRAS2 (TC21), human, residues 1-179; Limits 1-179 are stated for the crystals; also called RRAS2-Q36A; source: E. coli, purified (IMAC, TEV cleavage, second IMAC, SEC); exchanged to GMPPNP; not shown: His6, N-terminal, cleaved; MBP, N-terminal, cleaved
fold increase in binding affinity against wild-type RRAS2 [3]: 2 fold

B3: RRAS(22-192) (domain or fragment, human, UniProt P10301 22-192, looked up)
chain: GDPPPSETHKLVVVGGGGVGKSALTIQFIQSYFVSDYDPTIEDSYTKICSVDGIPARLDILDTAGQEEFGAMREQYMRAGHGFLLVFAINDRQSFNEVGKLFTQILRVKDRDDFPVVLVGNKADLESQRQVPRSEASAFGASHHVAYFEASAKLRLNVDEAFEQLVRAVRK
notes: source: E. coli, purified (IMAC, TEV cleavage, second IMAC, SEC); exchanged to GMPPNP; not shown: His6, N-terminal, cleaved; MBP, N-terminal, cleaved
binding result [4]: binds
binding result [3]: binds
